A short description of one data set: Thioflavin T. In kind it is physicochemical. The following applies: 2.5 μM Aβ in PBS, 20 μM ThT, room temperature, shaking 100 rpm between reads.
Data set [1] in a line: FCS size characterization. Format: physicochemical. The following applies: individual 30 s FCS measurements, 10 per sample; three preparations.
Data set [2] concerns immortalized human cortical astrocytes. In words: Cell viability of astrocytes. The following applies: 4 μM Aβ, 24 hours, 37°C; three biological replicates. Format: cell-based.

Consider “Aβ monomers: Aβ42 peptide with methionine as N-terminal residue, recombinantly expressed in E. coli, SEC-purified aggregate-free monomer”, for which the “ThT aggregation t1/2” value in “Thioflavin T” came out at 1.32 ± 0.13 h. In the case of “Aβ oligomers: stable pre-formed Aβ oligomers prepared by the protocol of Barghorn et al. with SDS”, the “CV of sizes within the same preparation” value in data set [1] is given as 17 ± 2%. In data set [2], the “toxicity of Aβ to astrocytes (cell viability)” value is “significantly higher toxicity”.
